Assay results taken from paper PMC5433940 (Chembiochem : a European journal of chemical biology, 2016).
Ends that are not written are not given here.

Assays:
[1] = target: T1, p32 protein (Homo sapiens, UniProt Q07021); assay: Binding of peptide-displaying T7 phage clones to immobilized p32 protein; conditions: peptide displayed on T7 phage; compared to LyP-1 phage
T1 sequence (Q07021 74-282): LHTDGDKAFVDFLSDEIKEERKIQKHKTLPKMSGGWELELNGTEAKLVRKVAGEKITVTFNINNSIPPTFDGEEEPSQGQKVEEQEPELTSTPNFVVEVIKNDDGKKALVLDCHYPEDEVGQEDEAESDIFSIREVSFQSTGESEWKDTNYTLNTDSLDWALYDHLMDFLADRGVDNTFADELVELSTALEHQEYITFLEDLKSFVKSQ

[2] = target: recombinant 6x-His-tagged p32 protein (p32/gC1qR) (UniProt Q07021); assay: AUC
[3] = target: T2, recombinant 6x-His-tagged p32 protein (p32/gC1qR) (UniProt Q07021 74-282); assay: fluorescence polarisation
T2 sequence (looked up): T1 sequence (Q07021 74-282)

With CKRGNRSMC the “phage binding to p32” value [1] was “greatly improved binding to p32 compared to LyP-1 phage”.

In the case of CTRGSRSKC, the “phage binding to p32” value [1] is reported as “greatly improved binding to p32 compared to LyP-1 phage”.

“recombinant 6x-His-tagged p32 protein (p32/gC1qR) (from UniProt Q07021 74-282) (natural protein; other documents disagree on this pair)” gave a stoichiometry N [2] of 3.

B1: FAM-labeled LyP-1 peptide (CGNKRTRGC) (peptide)
peptide: CGNKRTRGC
modifications: cysteine pairing not given here; also: FAM label, position not given here
B1 was tested, and the Kd [3] was > 23 µM.
